Results on two molecules are retold here after paper PMC5316805, “Potent single-domain antibodies that arrest respiratory syncytial virus fusion protein in its prefusion state” (Nature Communications, 2017).

Assay [1] has as its target RSV A2 F, full length, on RSV A2-infected cells and virions (human respiratory syncytial virus A2, UniProt P03420). The assay is described as follows: cell-based or functional assay.
The target of assay [2] is T1, prefusion-stabilized RSV F (DS-Cav1) with a C-terminal Strep-tag II and 6X HisTag (human respiratory syncytial virus A2 …, stabilised).
T1 construct: RSV fusion (F) protein, F2 subunit (N-terminal cut product of F0) of DS-Cav1; RSV fusion (F) protein, soluble part of the F1 subunit (C-terminal cut product of F0) of DS-Cav1; also called prefusion F; prefusion RSV F; source: purified; not shown: Strep-tag II, C-terminal, kept; His6, C-terminal, kept; copies: 3 + 3
The experiment in a line: SPR; DS-Cav1 captured by its His tag on an NTA chip to ~530 RU each cycle (Biacore X100); VHH 2-fold dilutions 5 nM to 39.1 pM in HBS-P+; double-reference subtracted, 1:1 binding model (Scrubber). The note with it: both partners purified. (SPR reads the build-up and loss of mass on a sensor chip optically.)

B1: F-VHH-L66 (VHH)
VHH: QVQLQESGGGLVQPGGSLRLSCAASGFTLDYYYIGWFRQAPGKEREGVSCISSSHGSTYYADSVKGRFTISRDNAKNTVYLQMNSLKPEDTAVYYCATVAVAHFRGCGVDGMDYWGKGTQVTVSS
notes: llama VHH; also in PDB 5TOK; Disulfide between Cys50 (CDR2) and Cys100c (CDR3), Kabat numbering; source: P. pastoris GS115, secreted, purified (ammonium sulfate precipitation, HisTrap HP, Superdex 75); not shown: His6, C-terminal, kept
The term Kd denotes the free concentration of one partner at which half of the binding sites on the other are occupied at equilibrium, for simple one-to-one binding. A lower Kd goes with tighter binding. A word on the koff: it is a measure of how fast the partners let go of each other. Read a high koff as fast dissociation. A word on the kon: it is the second-order rate constant of association. Read a low kon as slow association. Turning to B1, the “plaque-reduction neutralisation of RSV A2 and RSV B49 on Vero cells, IC50” value in assay [1] is below 0.1 nM. In assay [2], this molecule returned a Kd of 0.154 nM, a koff of 5e-05 s⁻¹ and an on-rate (kon) of 330000 M⁻¹ s⁻¹.

B2: F-VHH-4 (VHH)
VHH: QVQLQESGGGLVQPGGSLRLSCAASGFTLDYYYIGWFRQAPGKEREAVSCISGSSGSTYYPDSVKGRFTISRDNAKNTVYLQMNSLKPEDTAVYYCATIRSSSWGGCVHYGMDYWGKGTQVTVSS
notes: llama VHH; also in PDB 5TP3 and 5TOJ; Disulfide between Cys50 (CDR2) and Cys100c (CDR3), Kabat numbering; the Pichia-made protein was used in the complex crystals; also called clone 4; source: P. pastoris GS115, secreted, purified (ammonium sulfate precipitation, HisTrap HP, Superdex 75); not shown: His6, C-terminal, kept
Take B2: the “plaque-reduction neutralisation of RSV A2 and RSV B49 on Vero cells, IC50” value in assay [1] was below 0.1 nM. In addition, in assay [2], the Kd is below 0.018 nM, the off-rate constant (koff) was below 1e-05 s⁻¹ and the kon was found to be 570000 M⁻¹ s⁻¹.
